Data set [1] concerns the target H1FL (H1 11-193 in Table 1, i.e. residues 1-193) S19C (mouse) (UniProt P10922). The data set is described as follows: fluorescence (de)quenching. The following applies: 150 mM KCl (20 mM KCl for four-way junction and 4WJDNA), room temperature pre-incubation for competition, buffer and pH not given (HI-FI assay, ref 23).
Data set [2] addresses H1 1-121 (delta72) S19C (mouse) (UniProt P10922). In words: FRET competition. The following applies: 150 mM KCl (20 mM KCl for four-way junction and 4WJDNA); room temperature pre-incubation for competition; buffer and pH not given (HI-FI assay, ref 23).
The target of data set [3] is H1 1-96 (delta97) S19C (mouse) (UniProt P10922). The data set is described as follows: FRET competition. The following applies: 150 mM KCl (20 mM KCl for four-way junction and 4WJDNA); room temperature pre-incubation for competition; buffer and pH not given (HI-FI assay, ref 23).
For data set [4], the target named is H1FL (H1 11-193 in Table 1, i.e. residues 1-193) S19C (mouse) (UniProt P10922). The data set is described as follows: FRET competition. The following applies: 150 mM KCl (20 mM KCl for four-way junction and 4WJDNA), room temperature pre-incubation for competition, buffer and pH not given (HI-FI assay, ref 23).
The target in data set [5] is H1 1-121 (delta72) S19C (mouse) (UniProt P10922). In words: FRET. The following applies: internal amino-C6-dT; 150 mM KCl (20 mM KCl for four-way junction and 4WJDNA); room temperature pre-incubation for competition; buffer and pH not given (HI-FI assay, ref 23).
Data set [6] has as its target H1 1-96 (delta97) S19C (mouse) (UniProt P10922). In words: FRET. The following applies: internal amino-C6-dT; 150 mM KCl (20 mM KCl for four-way junction and 4WJDNA); room temperature pre-incubation for competition; buffer and pH not given (HI-FI assay, ref 23).
The target of data set [7] is H1FL (H1 11-193 in Table 1, i.e. residues 1-193) S19C (mouse) (UniProt P10922). In words: FRET. The following applies: internal amino-C6-dT; 150 mM KCl (20 mM KCl for four-way junction and 4WJDNA); room temperature pre-incubation for competition; buffer and pH not given (HI-FI assay, ref 23).
Data set [8] concerns the target H1 1-121 (delta72) S19C (mouse) (UniProt P10922). The data set is described as follows: fluorescence (de)quenching. The following applies: 150 mM KCl (20 mM KCl for four-way junction and 4WJDNA); room temperature pre-incubation for competition; buffer and pH not given (HI-FI assay, ref 23).
The mark [9] stands for this setting: histone variant H2A.Z, mouse histones.

Take 4WJ15 four-way junction: the Kd (commonly the free concentration of one partner at which half of the binding sites on the other are occupied at equilibrium, for simple one-to-one binding) in data set [1] is 0.035 nM. This lies in the picomolar range.

Substance 4WJDNA linear 30 bp registered a Kd in data set [1] of 3.75 nM.

“AGGCCTGAGAATCCGGTGCCGAGGCCGCTCAATTGGTCGTAGACAGCTCTAGCACCGCTTAAACGCACGTACGCGCTGTCCCCCGCGTTTTAACCGCCAAGGGGATTACTCCCTAGTCTCCAGGCACGTGTCAGATATATACATCCAGGCCTTGTGTC (double strand) [A1/10 nucleosome]”: the dissociation constant (Kd) amounted to 43.8 nM in data set [2] and 140 nM in data set [3].

For the substance “ATCCCTATACGCGGCCGCCCTGGAGAATCCCGGTGCCGAGGCCGCTCAATTGGTCGTAGACAGCTCTAGCACCGCTTAAACGCACGTACGCGCTGTCCCCCGCGTTTTAACCGCCAAGGGGATTACTCCCTAGTCTCCAGGCACGTGTCAGATATATACATCCGAT (double strand) [A18/1 nucleosome]”, the dissociation constant Kd in data set [2] was found to be 8.08 nM; in data set [3], 208 nM; in data set [4], 0.135 nM.

Consider “ATCTAATACTAGGACCCTATACGCGGCCGCATCGGAGAATCCCGGTGCCGAGGCCGCTCAATTGGTCGTAGACAGCTCTAGCACCGCTTAAACGCACGTACGCGCTGTCCCCCGCGTTTTAACCGCCAAGGGGATTACTCCCTAGTCTCCAGGCACGTGTCAGATATATACATCGATTGCATGTGGATCCGAATTCATATTAATGAT (double strand) [S30/30 nucleosome]”, for which the equilibrium dissociation constant (Kd) in data set [2] worked out at 1.85 nM; in data set [3], 124 nM; in data set [4], 0.0177 nM; in data set [1] it was 0.039 nM. Besides, the 50% inhibitory concentration (IC50) (commonly the concentration at which inhibition is half-maximal) in data set [4] (competitor of S31/30 (10 nM), 1 nM H1) turned out to be 3.7 nM.

In data set [1] (setting [9]), “ATCTAATACTAGGACCCTATACGCGGCCGCATCGGAGAATCCCGGTGCCGAGGCCGCTCAATTGGTCGTAGACAGCTCTAGCACCGCTTAAACGCACGTACGCGCTGTCCCCCGCGTTTTAACCGCCAAGGGGATTACTCCCTAGTCTCCAGGCACGTGTCAGATATATACATCGATTGCATGTGGATCCGAATTCATATTAATGAT (double strand) [S30/30-H2A.Z nucleosome]” yielded a Kd of 0.051 nM.

With “CGAGCCAGGCCTGAGAATCCGGTGCCGAGGCCGCTCAATTGGTCGTAGACAGCTCTAGCACCGCTTAAACGCACGTACGCGCTGTCCCCCGCGTTTTAACCGCCAAGGGGATTACTCCCTAGTCTCCAGGCACGTGTCAGATATATACATCCAGGCCTTGTGTCG (double strand) [S7/11 nucleosome]”, the Kd in data set [2] worked out at 3.26 nM; in data set [3] it was 73.6 nM; in data set [4], 1.73 nM.

Consider “CGCATCGGAGAATCCCGGTGCCGAGGCCGCTCAATTGGTCGTAGACAGCTCTAGCACCGCTTAAACGCACGTACGCGCTGTCCCCCGCGTTTTAACCGCCAAGGGGATTACTCCCTAGTCTCCAGGCACGTGTCAGATATATACATCGATTGCATGTGGATCCGAATTCATATTAATGAT (double strand) [A3/30 nucleosome]”, for which the dissociation constant (Kd) in data set [5] was 10.4 nM; in data set [6], 248 nM; in data set [7], 0.112 nM.

As to “GATCTAATACTAGGACCCTATACGCGGCCGCATCGGAGAATCCCGGTGCCGAGGCCGCTCAATTGGTCGTAGACAGCTCTAGCACCGCTTAAACGCACGTACGCGCTGTCCCCCGCGTTTTAACCGCCAAGGGGATTACTCCCTAGTCTCCAGGCACGTGTCAGATATATACATCGATTGCATGTGGATCCGAATTCATATTAATGAT (double strand) [S31/30 nucleosome]”, the Kd in data set [5] is 0.983 nM; in data set [6], 86.3 nM; in data set [7], 0.0484 nM.

Take LE-Tri trinucleosome: the Kd was 0.047 nM in data set [8] and 0.046 nM in data set [1] (stoichiometry 3 H1 per trimer).

Consider NLE-Tri trinucleosome, for which the Kd in data set [8] came out at 0.0638 nM; in data set [1] (stoichiometry 1 H1 per trimer) it was 0.042 nM.

In turn, NLE-Tri-H2A.Z trinucleosome gave a Kd in data set [1] (setting [9]) of 0.023 nM.

On to “TCGGGATACGCGGCCGCCCTGGAGAATCCCGGTGCCGAGGCCGCTCAATTGGTCGTAGACAGCTCTAGCACCGCTTAAACGCACGTACGCGCTGTCCCCCGCGTTTTAACCGCCAAGGGGATTACTCCCTAGTCTCCAGGCACGTGTCAGATATATACATCCTGTGCATGTATTGAC (double strand) [S17/13 nucleosome]”, for which the Kd in data set [2] was found to be 0.947 nM; in data set [3], 26.5 nM; in data set [4] it was 0.23 nM.
